Values of other authors in patent US10543287.

What was measured:
[1] = system: rag2 ZFN pair (FokI) (synthetic construct); assay: cell_activity; conditions: CITED ref 58 somatic mutation rate in zebrafish embryos, mutant lines obtained here (Table 1), half-sites only highlighted in figure
[2] = system: jak3 ZFN pair (FokI) (synthetic construct); assay: cell_activity; conditions: CITED ref 58 somatic mutation rate in zebrafish embryos, mutant lines obtained here (Table 1), half-sites only highlighted in figure

| Sequence | activity [1] [%] | activity [2] [%] |
| --- | --- | --- |
| CCATGATCTTCTGCTCCAGGGGTGAAGGTGGACACTG (double strand) [rag2 ZFN target] | 7.7 | – |
| TATTTCTGCGCAGAAGTGGCCCCACCAAGCCTGCTGGAGGACATACAGAATTA (double strand) [jak3 ZFN target] | – | 1.4 |
